Experiments:
[1] = biological target: T1, monkey GFRα3 expressed with a C-terminal myc-myc-hexahistidine tag (monkey (Mf), UniProt O60609 32-374 (human entry), limits assumed); test: SPR, Ab captured, 25C
T1 construct: also called MfGFRα3-mmh; MfGFRα3-mmH
T1 chain: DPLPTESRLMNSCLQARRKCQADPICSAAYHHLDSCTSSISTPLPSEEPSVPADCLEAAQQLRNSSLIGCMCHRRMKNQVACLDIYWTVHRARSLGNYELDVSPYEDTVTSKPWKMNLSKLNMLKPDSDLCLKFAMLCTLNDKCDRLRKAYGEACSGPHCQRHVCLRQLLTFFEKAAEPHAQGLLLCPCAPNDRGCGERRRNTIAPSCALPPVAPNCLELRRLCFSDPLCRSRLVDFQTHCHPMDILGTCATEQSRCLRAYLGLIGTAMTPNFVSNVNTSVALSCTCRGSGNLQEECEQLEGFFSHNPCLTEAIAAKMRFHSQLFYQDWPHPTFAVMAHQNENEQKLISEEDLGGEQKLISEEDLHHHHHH
Procedure, shortened: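 Biacore kinetics use antibody captured via anti-IgG and a 1:1 fit of association (up to 4 min) and dissociation (up to 20 min) phases. Analyte ranges are 200–7.4 nM for myc-myc-His constructs and 100–3.7 nM for the hFc construct.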

[2] = biological target: T2, human GFRα3 expressed with a C-terminal myc-myc-hexahistidine tag (human, UniProt O60609 32-374, biotinylated (sites not given) in ELISA format 2 and in the Octet cross-competition; not in SPR); test: Octet cross-competition; biotin-hGFRα3-mmH pre-saturated with first antibody H4H2236N3
T2 construct: also called hGFRα3-mmh; hGFRα3-mmH
Description: A cross-competition assay was conducted to assess the ability of select antibodies to compete with one another for binding to human GFRα3 using an Octet RED384 biosensor (Fortebio Inc.). The entire experiment was performed at 25° C. with the flow rate of 1000 rpm in Octet HBST buffer (0.01 M HEPES pH7.4, 0.15M NaCl, 3 mM EDTA, 0.05% v/v Surfactant P20, 0.1 mg/mL BSA). To assess whether 2 antibodies were able to compete with one another for binding to their respective epitopes on biotinylated recombinant human GFRα3 expressed with a C-terminal myc-myc-hexahistidine tag (biotin-hGFRα3-mmH; SEQ ID:370), around ˜1.2 nm of biotin-hGFRα3-mmH was first captured onto streptavidin-coated Octet sensor tips (Fortebio Inc, #18-5019) by submerging the tips for 1 minute into a 10 μg/mL solution of biotin-hGFRα3-mmH. The antigen coated sensor tips were then placed into wells containing 25 μg/mL solution of a first anti-GFRα3 monoclonal antibody for 4 minutes to saturate the biotin-hGFRα3-mmH surface. The sensor tips were then subsequently dipped into wells containing 25 μ/mL solution of a second anti-GFRα3 monoclonal antibody. The sensor tips were washed in Octet HBST buffer in between every step of the experiment. The real-time binding response was monitored during the course of the experiment and the binding response at the end of every step was recorded as shown in FIG. 9. The response of mAb-2 binding to biotin-hGFRα3-mmH pre-complexed with the first antibody was compared and competitive/non-competitive behavior of different anti-GFRα3 monoclonal antibodies was determined.

B1: H4H2342P (antibody, human IgG4, V domains shown)
VH: EVQLLESGGGLVQPGGSLRLSCAASGFTFSTYAMSWVRQAPGKGLEWVSAIRGNGVNTYYGDSMKGRFTISRDNSKDTLYLQMNSLRAEDTAVYYCAKNKWELLVFEYWGQGTLVTVSS
VL: DIQMTQSPSSLSASVGDRVTITCRASQDISNYLAWYQQKPGKVPKLLIYAASTLQSGVPFRFSGSGSGTDFTLTISSLQPEDVATYYCQKYNSAPPFGPGTKVDIK
notes: human IgG4 Fc (H4H)
In the case of B1, the Kd [1] is reported as 5.87 nM, the koff [1] is reported as 0.00055 s⁻¹ and the kon [1] is reported as 93700 M⁻¹ s⁻¹. For the same binder, the t1/2 [1] was 0.35 h and the “binding response of second antibody (nm)” value [2] was -0.01 nm.

B2: H4H2345S (antibody, human IgG4, V domains shown)
VH: EVQLVESGGGLVRPGRSLRLSCAASGFTFDNYAMHWVRQVPGKGLEWVSGITWNSVSLGYADSVKGRFTISRDNAQNSLYLQMNSLRTVDTALYYCAKDRWGGSYYFDFWGQGTLVTVSS
VL: DIVMTQSPSSLSASVGDRVTITCRASQGISNYLAWYQQKPGKVPKLLIYSASTLQSGVPSRFSGSGSGTDFTLTISNLQPEDFATFFCQKYNSAPTFGGGTKVEIK
notes: human IgG4 Fc (H4H)
Work on B2 yielded a Kd [1] of 28.7 nM, a koff [1] of 0.00279 s⁻¹ and a kon [1] of 97500 M⁻¹ s⁻¹. It also gave a t1/2 [1] of 0.0667 h.

B3: H4H2291S (antibody, human IgG4, V domains shown)
VH: EVQLVESGGGLVQPGESLRLSCAASGFTFSNYAMSWVRQAPGKGLEWVSVISGSGGSTYYADSVKGRFTMSRDNSKNTLYLQMNSLRAEDTAVYYCAKPPSRAARYFNYGMDVWGQGTTVTVSS
VL: AIRMTQSPSSVSASVGDRVTITCRASQGISSWLAWYQQKPGKAPKLLIYAASSLQSGVPSRFSGSGSGTDFTLTISSLQPEDFATYYCQQANSFPFTFGGGTKVEIK
notes: human IgG4 Fc (H4H)
B3 showed a Kd [1] of 1.85 nM, a koff [1] of 0.000279 s⁻¹ and a kon [1] of 151000 M⁻¹ s⁻¹. The t1/2 [1] was 0.683 h and the “binding response of second antibody (nm)” value [2] was 0.06 nm.

B4: H4H2295S (antibody, human IgG4, V domains shown)
VH: EVQLVESGGGLVQAGGSLRLSCVASGFTFSSYAMSWVRQAPGKGLEWVSAISGSGGSTYSADSVKGRFTISRDNSKNTLYLQMNSLRAEDTAVYYCTKPSSYSSSNFYYGMDVWGQGTTVTVSS
VL: DIQMTQSPSSVSASVGDRVTITCRASQGISSWLAWYQQKPGKAPKLLIYTASSLQSGVPSRFSGSGSRTDFTLTISSLQPEDFATYYCQQTNSLPLTFGPGTKVEIK
notes: human IgG4 Fc (H4H)
Binder B4 has a Kd [1] of 5.32 nM, a koff [1] of 0.000973 s⁻¹ and a kon [1] of 183000 M⁻¹ s⁻¹. The t1/2 [1] was 0.2 h and the “binding response of second antibody (nm)” value [2] was 0.03 nm.

B5: H4H2296S (antibody, human IgG4, V domains shown)
VH: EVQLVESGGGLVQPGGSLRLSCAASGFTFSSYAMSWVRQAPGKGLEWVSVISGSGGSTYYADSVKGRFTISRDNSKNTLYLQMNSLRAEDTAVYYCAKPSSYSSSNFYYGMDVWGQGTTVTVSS
VL: DIVMTQSPSSVSASVGDRVTITCRASQGISSWLAWYQQKPGKAPKLLIYAASSLRSGVPSRFSGSGSGTDFTLTITSLQPEDFATYYCQHTNSFPFTFGPGTKVEIK
notes: human IgG4 Fc (H4H)
Work on B5 yielded a Kd [1] of 3.37 nM, a koff [1] of 0.000651 s⁻¹ and a kon [1] of 193000 M⁻¹ s⁻¹. The t1/2 [1] was 0.3 h and the “binding response of second antibody (nm)” value [2] was 0.02 nm.

B6: H4H2364S (antibody, human IgG4, V domains shown)
VH: EVQLVESGGGLEQPGGSLRLSCAASGFTFSSYVMSWVRQVPGKGLEWVSVISGSGGSTYYADSVKGRFTISRDNSKNTLYLQMNSLRAEDTAVYYCAKPSSYSSSNFHYGMDVWGQGTTVTVSS
VL: DIQMTQSPYSVSASVGDRVTITCRASQGISSWLAWYQQKPGRAPKLLIYAASSLQSGVPSRFSGSGSGTDFTLTISSLQPEDFATYYCQKTNSFPFTFGPGTKVEIK
notes: human IgG4 Fc (H4H)
B6 showed a Kd [1] of 1.06 nM, a koff [1] of 0.00013 s⁻¹ and a kon [1] of 122000 M⁻¹ s⁻¹. The t1/2 [1] was 1.48 h.

B7: H4H2294S (antibody, human IgG4, V domains shown)
VH: EVQLVESGGGLVQPGGSLRLSCAASGFTFSSYAMSWVRQAPGKGLEWVSVISGSGGSTYYADAVKGRFTISRDNSKHTLYLQMNSLRAEDTAVYYCTKPSSYSSSNFYYGMDVWGQGSTVTVSS
VL: DIQLTQSPSSVSASVGDRVTITCRASQGISSWLAWYQQKPGKAPKLLIYAASSLQSGVPSRFSGSGSGTDFTLTISSLQPEDFATYYCQQTNSFPFPFGPGTKVDIK
notes: human IgG4 Fc (H4H)
Work on B7 yielded a Kd [1] of 0.627 nM, a koff [1] of 0.000204 s⁻¹ and a kon [1] of 325000 M⁻¹ s⁻¹. For the same binder, the t1/2 [1] was 0.95 h and the “binding response of second antibody (nm)” value [2] was 0 nm.

B8: H4H2344S (antibody, human IgG4, V domains shown)
VH: EVQLVESGGGVVQPGRSLRLSCAASGFSFSDYVMHWVRQAPGKGLEWVASIWFDGSNEFYADSVKGRFTISRDNSKNTLFLQMNSLRAEDTAVYYCAKKGVLVATSAFDIWGQGTMVTVSS
VL: DIQMTQSPSSLSASVGDRVTITCRASQSINNYLNWYHQKPGKAPKLLIYAASSLQSGVPSRFSGSGSGTDYTLTISSLQPEDFGNYYCQQSYRTSMYTFGQGTKVEIK
notes: human IgG4 Fc (H4H)
Work on B8 yielded a Kd [1] of 1.1 nM, a koff [1] of 0.000115 s⁻¹ and a kon [1] of 104000 M⁻¹ s⁻¹. The t1/2 [1] was 1.68 h.

B9: H4H2346S (antibody, human IgG4, V domains shown)
VH: QVQLVESGGGVVQPGRSLRLSCAASGFSFSDYVMHWVRQAPGKGLEWVASIWFDGSNEFYADSVKGRFTISRDNSKNTLFLQMNSLRAEDTAVYYCAKKGVLVATSAFDIWGQGTMVTVSS
VL: EIVMTQSPSSLSASVGDRVTITCRASQSINNYLNWYHQKPGKAPKLLIYAASSLQSGVPSRFSGSGSGTDYTLTISSLQPEDFGNYYCQQSYRTSMYTFGQGTKVEIK
notes: human IgG4 Fc (H4H)
B9 gave a Kd [1] of 0.556 nM, a koff [1] of 5.98e-05 s⁻¹ and a kon [1] of 108000 M⁻¹ s⁻¹. For the same binder, the t1/2 [1] was 3.22 h.

B10: H4H2354S (antibody, human IgG4, V domains shown)
VH: QVQLVESGGGVVQPGRSLRLSCAASGFSFSDYVMHWVRQAPGKGLEWVASIWFDGSNEFYADSVKGRFTISRDNSKNTLFLQMNSLRAEDTAVYYCAKKGVLVATSAFDIWGQGTMVTVSS
VL: DIQLTQSPSSLSASVGDRVTITCRASQSINNYLNWYHQKPGKAPKLLIYAASSLQSGVPSRFSGSGSGTDYTLTISSLQPEDFGNYYCQQSYRTSMYTFGQGTKVEIK
notes: human IgG4 Fc (H4H); also called H4H2354S-1
Binder B10 has a Kd [1] of 0.574 nM, a koff [1] of 6.23e-05 s⁻¹ and a kon [1] of 109000 M⁻¹ s⁻¹. The t1/2 [1] was 3.08 h.

B11: H4H2293P (antibody, human IgG4, V domains shown)
VH: QVQLVESGGGVVQPGRSLRLSCAASGFSFSDYVMHWVRQAPGKGLEWVASIWFDGSNELYADSVKGRFTISRDNSKNTLFLQMNSLRAEDTAVYYCAKKGVLVATSAFHIWGQGTMVTVSS
VL: AIQMTQSPSSLSASVGDRVTITCRASQNINNYLNWYHQKPGKAPNLLIYAASSLQSGVPSRFSGSGSGTDYTLTISSLQPEDFGNYYCQQSYSTSMYTFGQGTKLEIK
notes: human IgG4 Fc (H4H)
For B11, the Kd [1] was 0.144 nM, the koff [1] was 4.17e-05 s⁻¹ and the kon [1] was 290000 M⁻¹ s⁻¹. For the same binder, the t1/2 [1] was 4.62 h.

B12: H4H2236N3 (antibody, human IgG4, V domains shown)
VH: EVQLLESGGNLVQPGGSLRLSCAASGFTFSSYAMTWVRQAPGKGLEWVSTISGSGTSTYYADSVKGRFTISRDNSRDTVFLQMNSLRAEDTAVYYCSKPSALRFLHWLAMDVWGQGTLVTVSS
VL: DIQMTQSPSSLSAFVGDRVTITCRASQDIRNYLDWFQQKPGKAPKSLIYAASNLQSGVPSRFGGSGSGTDFTLTINSLQPEDFVTYYCQQYNSYPPTFGGGTKVEIK
notes: human IgG4 Fc (H4H)
With B12 the “binding response of second antibody (nm)” value [2] was 0 nm.

B13: H4H2243N2 (antibody, human IgG4, V domains shown)
VH: QVQLVQSGAEVKKPGASVKVSCKASGYTFTSYGIIWVRQAPGQGLEWMGWISGYNGNTNYAQNLQGRVTMTTDTSTTTAYMELRSLRSDDTAVYYCARWGIATRPYYYYGMDVWGQGTTVTVSS
VL: DIQMTQSPSSLSASVGDRVTITCRASQDITNYLAWFQQKPGKAPKSLIYAASSLQSGVPSKFSGSGSGTDFTLTISSLQPEDFATYYCQQYNSYPPTFGPGTKVDIK
notes: human IgG4 Fc (H4H)
In the case of B13, the “binding response of second antibody (nm)” value [2] is reported as 0.02 nm.

B14: H4H2341S (antibody, human IgG4, V domains shown)
VH: EVQLVESGAEVKKSGSSVKVSCKASGGTFSRYAISWVRQAPGQGLEWMGGIIPLFGTLNYAQKFQGRVTLTTDESTSTAYMELSSLRSEDTAVYYCAVFYYGSGSYRNWFDPWGQGTLVTVSS
VL: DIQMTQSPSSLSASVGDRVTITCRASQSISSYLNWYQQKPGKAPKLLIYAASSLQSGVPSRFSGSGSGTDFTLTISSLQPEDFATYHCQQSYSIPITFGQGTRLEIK
notes: human IgG4 Fc (H4H)
In the case of B14, the Kd [1] is reported as 1.39 nM, the koff [1] is reported as 0.00013 s⁻¹ and the kon [1] is reported as 93800 M⁻¹ s⁻¹. The t1/2 [1] was 1.48 h.

B15: H4H2355S (antibody, human IgG4, V domains shown)
VH: EVQLVESGGGLVQPGGSLRLSCAASGFTFSSYAMSWVRQVPGKGLEWVSAISGSGDNTYNAESVKGRFTISRDNSKNMLYLQMNSLRAEDTAVYYCAKTKFSSSLLFDYWGQGTLVTVSS
VL: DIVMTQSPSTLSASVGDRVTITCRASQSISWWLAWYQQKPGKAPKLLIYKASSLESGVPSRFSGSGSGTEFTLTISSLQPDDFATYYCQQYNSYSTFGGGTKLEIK
notes: human IgG4 Fc (H4H)
In the case of B15, the Kd [1] is reported as 0.649 nM, the koff [1] is reported as 6.78e-05 s⁻¹ and the kon [1] is reported as 105000 M⁻¹ s⁻¹. The t1/2 [1] was 2.83 h and the “binding response of second antibody (nm)” value [2] was 0 nm.

B16: H4H2212N (antibody, human IgG4, V domains shown)
VH: EVQLLESGGGLVQPGGSLRLSCAASGFTFSSYAMSWVRQGPGKGLEWVSGISGSGGSTYNADSVKGRFTISRDNSKNTLYLQMNSLRAEDTAVYYCAKDSGTYWYYFDYWGQGILVTVSS
VL: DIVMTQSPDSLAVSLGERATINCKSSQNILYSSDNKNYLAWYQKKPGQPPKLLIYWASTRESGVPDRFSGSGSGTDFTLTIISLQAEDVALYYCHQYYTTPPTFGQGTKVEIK
notes: human IgG4 Fc (H4H)
In the case of B16, the “binding response of second antibody (nm)” value [2] is reported as 1.79 nm.
